Drawing on article PMC2615553 (Immunity, 2008), this text covers Kd for one molecule.

The test deals with T1, plexinD1-Fc (ectodomain of mouse plexinD1 as C-terminal Fc-fusion construct) (mouse, UniProt Q3UH93 49-1271).
T1 sequence (looked up): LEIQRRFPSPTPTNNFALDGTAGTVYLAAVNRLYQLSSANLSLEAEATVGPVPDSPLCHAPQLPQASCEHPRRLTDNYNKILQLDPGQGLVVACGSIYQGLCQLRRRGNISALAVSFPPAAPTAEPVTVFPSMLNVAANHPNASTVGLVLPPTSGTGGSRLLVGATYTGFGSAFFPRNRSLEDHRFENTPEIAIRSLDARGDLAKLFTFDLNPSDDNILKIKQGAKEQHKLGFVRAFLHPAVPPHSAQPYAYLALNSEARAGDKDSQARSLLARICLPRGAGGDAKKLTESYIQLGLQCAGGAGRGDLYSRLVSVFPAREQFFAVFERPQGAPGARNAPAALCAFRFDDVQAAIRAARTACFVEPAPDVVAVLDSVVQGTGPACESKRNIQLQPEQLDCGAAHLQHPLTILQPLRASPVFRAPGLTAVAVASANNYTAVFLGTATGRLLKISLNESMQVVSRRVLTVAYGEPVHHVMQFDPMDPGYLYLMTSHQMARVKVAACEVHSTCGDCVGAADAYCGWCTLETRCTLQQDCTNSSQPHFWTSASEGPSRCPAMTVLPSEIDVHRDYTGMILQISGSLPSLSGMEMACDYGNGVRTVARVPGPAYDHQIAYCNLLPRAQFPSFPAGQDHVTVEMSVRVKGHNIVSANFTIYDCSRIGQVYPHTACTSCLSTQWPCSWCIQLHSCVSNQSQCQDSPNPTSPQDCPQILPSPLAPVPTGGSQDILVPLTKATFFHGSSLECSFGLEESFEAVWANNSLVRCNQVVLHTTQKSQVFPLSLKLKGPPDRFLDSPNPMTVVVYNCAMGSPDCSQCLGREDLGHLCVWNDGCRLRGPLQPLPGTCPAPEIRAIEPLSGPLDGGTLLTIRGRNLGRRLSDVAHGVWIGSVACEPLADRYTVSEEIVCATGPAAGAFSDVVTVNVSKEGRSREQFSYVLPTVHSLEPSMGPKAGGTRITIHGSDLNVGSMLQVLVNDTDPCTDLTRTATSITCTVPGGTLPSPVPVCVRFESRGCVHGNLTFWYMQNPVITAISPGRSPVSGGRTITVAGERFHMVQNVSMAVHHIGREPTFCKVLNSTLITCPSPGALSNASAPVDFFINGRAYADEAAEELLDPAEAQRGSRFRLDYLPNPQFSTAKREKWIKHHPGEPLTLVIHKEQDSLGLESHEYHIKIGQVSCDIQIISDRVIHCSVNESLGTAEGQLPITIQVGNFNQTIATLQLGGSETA
The test is described as follows: SPR. (In general: SPR reads the build-up and loss of mass on a sensor chip optically.)

The term Kd denotes the constant that tells how readily two partners part at equilibrium.

B1: sema3E-Fc (semaphorin 3E as C-terminal Fc-fusion construct) (Fc fusion, UniProt P70275 26-775, looked up)
chain: ANPSYPRLRLSHKELLELNRTSIFQSPLGFLDLHTMLLDEYQERLFVGGRDLVYSLNLERVSDGYREIYWPSTAVKVEECIMKGKDANECANYIRVLHHYNRTHLLTCATGAFDPHCAFIRVGHHSEEPLFHLESHRSERGRGRCPFDPNSSFVSTLVGNELFAGLYSDYWGRDSAIFRSMGKLGHIRTEHDDERLLKEPKFVGSYMIPDNEDRDDNKMYFFFTEKALEAENNAHTIYTRVGRLCVNDMGGQRILVNKWSTFLKARLVCSVPGMNGIDTYFDELEDVFLLPTRDPKNPVIFGLFNTTSNIFRGHAVCVYHMSSIREAFNGPYAHKEGPEYHWSLYEGKVPYPRPGSCASKVNGGKYGTTKDYPDDAIRFARMHPLMYQPIKPVHKKPILVKTDGKYNLRQLAVDRVEAEDGQYDVLFIGTDTGIVLKVITIYNQETEWMEEVILEELQIFKDPAPIISMEISSKRQQLYIGSASAVAQVRFHHCDMYGSACADCCLARDPYCAWDGISCSRYYPTGAHAKRRFRRQDVRHGNAAQQCFGQQFVGDALDRTEERLAYGIESNSTLLECTPRSLQAKVIWFVQKGRDVRKEEVKTDDRVVKMDLGLLFLRVRKSDAGTYFCQTVEHNFVHTVRKITLEVVEEHKVEGMFHKDHEEERHHKMPCPPLSGMSQGTKPWYKEFLQLIGYSNFQRVEEYCEKVWCTDKKRKKLKMSPSKWKYANPQEKRLRSKAEHFRLPRHTLLS
B1 displayed a Kd of 43.4 nM.
